This passage reports Kd, koff and kon results from PMC9850916.

The assay addresses mutant human FcγRIIIa (V158) ectodomain (amino acid residues 1–175) with nine amino acid mutations a (human). Briefly: SPR. In general terms: In SPR one partner is held on a chip, and binding of the other changes the refractive index at the surface.

For Expi293-derived adalimumab (antibody), the Kd came to 1550 nM, the koff was determined as 0.062 s⁻¹ and the kon worked out at 40000 M⁻¹ s⁻¹.

By Kd is commonly meant a measure of binding affinity in units of concentration. High values mean weaker binding, low ones tighter binding. One may read the koff as a measure of how fast the partners let go of each other. Higher therefore signals a short-lived complex. For orientation: kon means the rate constant with which the complex forms. A low value points to slower complex formation.
